Source: the nanobody polyreactivity screen of Harvey et al. (2022)

Experiment: yeast display, Sf9 membrane polyspecificity reagent, FACS + sequencing; frameworks hold sequencing errors
In short: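 In a synthetic yeast display library (Saccharomyces cerevisiae BJ5465), nanobody expression was induced with galactose for 36–48 hours. FACS gates were set low and high (top ~1%) using anti-HA fluorescence for expression and streptavidin fluorescence for binding of the Sf9 membrane reagent. Each polyreactivity label is drawn from the gate of origin.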

Row | Sequence | polyreactivity (PSR sort gate)
1 | QVQLVESGGGLVQAGGSLRLSCAASGSTFQPYAMGWYRQAPGKEREFVATISGSAGSTYYADSVKGRFKISRDNAKNTVYLQMNSLKPEDTAVYYCNARPARKSLDYDYWGQGTQVTVSS | low polyreactivity
2 | QVQLVESGGGLVQAGGSLRLSCAASGSTFQRYAMGWYRQAPGKERELVAAITIRGTRTYYADSVKGRFTISRDNAKNTVYLQMNSLKPEDTAVYYCAATYYWYGHPSRRYDYWGQGTQVTVSS | high polyreactivity
3 | QVQLVESGGGLVQAGGSLRLSCAASGSTFQRYTMGWYSQAPGKERELVAAISQSGGRTYYADSVKGRFTISREHAKKTVYLEMNSLKPEDTAVYSCNAASRTKFDYWGQGTQVTVSS | high polyreactivity
4 | QVQLVESGGGLVQAGGSLRLSCAASGSTFQSYAMGWYRQAPGKERELVASITRTGGTTYYADSVKGRFTISRDNAKNTVYLQMNSLKPEDTAVYYCNADLGQPISLDDFDYWGQGTQVTVSS | low polyreactivity
5 | QVQLVESGGGLVQAGGSLRLSCAASGSTFQTYAMGWSRQAPGKERELVAAISFNGGSTYYADSVKGRFTISRDNAKNTVYLQMNSLKPEDTAVYYCAVEYTWATALYDGRHDYWGQGTQVTVSS | high polyreactivity
6 | QVQLVESGGGLVQAGGSLRLSCAASGSTFQTYAMGWYRQAPGKERELVAAITSGGSTNYADSVKGRFTISRDNAKNTVYLQMNSLKPEETAVYYCAVRQIYQTSDHRLQYDYWGQGTQVSVSS | low polyreactivity
7 | QVQLVESGGGLVQAGGSLRLSCAASGSTFQTYAMGWYRQAPGKERELVASIDYSGGSTYYADSVKGRFTISRDNAKNTVYLQMNSLKPEDTAVYYCAADLSSDSSYSGYDYWGQGTQVTVSS | low polyreactivity
8 | QVQLVESGGGLVQAGGSLRLSCAASGSTFQWYTMGWYRQAPGKERELVAAITWSGASTYYADSVKGRFTISRDNAKNTVYLQMNSLKPDYTAVYYCAADWRRGSGFYYWGQGTQVTVSS | high polyreactivity
9 | QVQLVESGGGLVQAGGSLRLSCAASGSTFQYNAMGWYRQAPGKERELVAVISGSGSRTYYADSVKGRFTISRDNAKNTVYLQMNSLKPEDTAVYYCAKQRGGEPRSSTYYYWGQGTQVTVSS | high polyreactivity
10 | QVQLVESGGGLVQAGGSLRLSCAASGSTFQYYAMGGYIQAPGKQRQLVAAISSGGSTYYADSVKGRFTISRDNAMNTVYLQMNSLKPEDTAVYYCAADGYYSVSRYTSYKYYYWGQGTQVTVSS | high polyreactivity
11 | QVQLVESGGGLVQAGGSLRLSCAASGSTFQYYAMGWYRQAPGKERELVAAISSGGSTYYADSVKGRFTISRDIAKNTVYLQMNSLKPEDTAVYYCAAYEYDGDYGYCGQGTQVTVSS | high polyreactivity
12 | QVQLVESGGGLVQAGGSLRLSCAASGSTFQYYARGWYRQAPGKETELVAAISDRDGGTFYADSVKGRFTISRDNAKNTVYLQMNSLKPEDTAVYYCATDAVGFRLDDNGYWGQGTQVTVSS | low polyreactivity
13 | QVQLVESGGGLVQAGGSLRLSCAASGSTFQYYDMGWYRQAPGKERELVASITGSGDSTYYADSVKGRFTISRDNAKNTVYLQMNSLKPEDSAVYYCAAQNTWSGDYDYWGQGTQVTVSS | low polyreactivity
14 | QVQLVESGGGLVQAGGSLRLSCAASGSTFRANAMGWYRQAPGKERELVAAISSGGSTYYADSVKGRFTISRDNAKNTVYLQMNSLKPEDTAVYYCAAVTVKYDESGIYYSDDDYWGQGTQVTVSS | high polyreactivity
15 | QVQLVESGGGLVQAGGSLRLSCAASGSTFRANLMGRYRQAPGKERELVAAITSAGGSTYYADSVKGRFTISRDNAKNTVYIQMNSLKPEDTAVYYCNKQERPGPGRARYNYWGQGTQVTVSS | high polyreactivity
16 | QVQLVESGGGLVQAGGSLRLSCAASGSTFRAYAMGWYRQAPGKEREFVADISWSGGSTYYADSVKGRFTISRDNAKNTVYLQMNSLKPEDSAVYYCAAEAAPLIIVTYDYWGQGTQVTVSS | low polyreactivity
